Data reported in the domain aggregation screens of Martell et al. (2025).

Assay: soluble fraction after stress (log2 fold change); higher = more stays soluble; pooled small domains, quantitative proteomics
Details: stress: 50 degC
In short: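 After stress at 50°C, the amount of each protein still soluble was measured. This was done on pooled custom libraries of small protein domains, using high-throughput quantitative proteomics. The figure given is a base-two log fold change and stands for aggregation propensity, with higher values meaning more protein stays in solution.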

Point of comparison: “HMENLIEELTAKNKEYIHSVTKQLILVGKSDEEVKEILNDILPQIIEGQKSGIIARKLLGAPTEFVSQYQP”, “soluble fraction (log2)” value 0.011. Against it:
- HMTYFIADLIGLQVYTDSGELLGKVDDIYNSGSADIYVVKDELGKQILLPGIKDVIKQIDVDNEKIIVHLI — lower, -0.885
- HMRAGHDFEALKHIESSLDKHLTDEGIKIKSEKRGAIVARWYQSHVEGREVTDDDVHTWIELFF — lower, -3.5
- HMGGYVVVGDKDGFWSVVSTPVSKAKAEELLKDTTFPKGEKGKIVSVAEAMSHKKVIGKEYLESGGT — within 0.2 log units, 0.117
- HMSSIHQDAKQQLHEYIRTYIQPLMRAGKQVTVWDIIGHVTIRKPKLVQKIGTQQLINMVQDLLE — lower, -0.213
- HMRNAAGGIYGWMTLHQVAETVKLTEEEVIAITNLPAGIPRDVSLKNIEGVNDEELRALLEAYLEKQ — within 0.2 log units, -0.151
- HMYDFGVILQKLRKEKGFTQEQLARLIHKESSIISRYEKGLQNPTFETVKEFAAIFNVSMDYLAG — lower, -1.25
- HMDAEELNSKAKDEFTWLEDDESETNLEYRKMVSSEDMAIVAKVAPALAAKLKYQLAHAATNMV — within 0.2 log units, 0.0207
- HMDKINQEAIEDEAGLWLAKIDGRQLAQEEVRELIAWMRRSDFHREYLITLARQWDGMAALNKLATLFP — lower, -0.976
- HMSMPEVLSDRELEIFRMIGTGMSTGDIAKKLNISVNTIESHRKKIKDKLGIQKGSELVKAAVQWVSTQQ — lower, -0.262
- HMTKDYVVIYEGLAQTEAVEILGKLQEMGVSAKVDHNDSILVLKDEEDQIRMALATEGYPKS — within 0.2 log units, -0.0917
- HMIAASQVLRDARQRSRLTQAELGRRADVPQSVISAYESARREPSVDMLARLVAAAGFDLRIGLTP — lower, -0.541
- HMIEDMTINIEERLSLNGDIKKSEYILQYIKPDFIRKVILSPELNKGEIYIYDSKKKVMYLPLFDQVSEEI — lower, -0.463
- HMQAVKQIKVERGMTLEKIAQSEFGDSTRWGEIVEVNNLRAPYISDDPTETRDGVLKPGSNLLIPIP — within 0.2 log units, 0.094
- HMVNGEFIDRIKVILQENNATRKKDRLTKTRMYQLLQEEGYEGSYSAFTYQVRIIEEELGINNK — lower, -1.51
- HMNQEIELLLREPDFTSAARLAMAINERFTNSARAIDPTSVKVRMPEGLDQASVDFVARLEDIEMSPDT — within 0.2 log units, -0.0281
- HMKRANGTGSVFKLNGKRRNPWVARVTQGFDDKGRQKYVNLGYYKTKREAENELLSYNSNPYDAN — higher, 0.214
- HMSATIMVLRASEDIPVGTEIKDNHLTTVEVGSYGLPEGAINDKDTVLGKVAQTNIIKGDYFFPQKLGG — within 0.2 log units, 0.152
- HMNMMESNLFAVYDNDDIVKTLRQGAMEIDSLIRLMGKSSAEVLEKLTTMELQGIITRSGNIIALNN — within 0.2 log units, -0.064
- HMNHSITLTERKNLLITGVKKIENFDKEEFLIETTMGFLVVKGDGLELIKLDTISGNVSIKGIVNGFTYID — higher, 0.223
- HMTVLPTENDAKALVGLNEDEAVKIIEGNGWTYRIGSRDGEQFMLTEDYSTSRLTLGIEKSIVVTATI — within 0.2 log units, -0.151
- HMKFNLWLSEKLKKLGLTQRKLAEQAGVSPATVSRWLSGEFEPDLTNLRKINQVLGVPERELFLQLGL — within 0.2 log units, 0.154
- HMQKIYTIARGDTLSHIVAGTLKQQGIAYTTGELYRLVNVVAQYNDILNPNRIYTGHQLDLTPLYSED — within 0.2 log units, -0.103
- HMYELSDTEWKIIEQVGLGASNKEIAASLHFSEGTIRNYLSVILDKLSLRDRTQLAILYVKMN — within 0.2 log units, -0.058
- HMFLSQQDINRANAASVTDMGDIIRRTFERNAAEINGLELSDAEKKDAVKQMATLATTALKTAAGAVNPY — within 0.2 log units, -0.132
- HMQASTGNVNTETLNLRKEASTSADILKLLSQGDEVEIVSESNGWYKVKYKDTEGFVSKEYITVN — higher, 0.245
- HMKNKFYEEFSDYIFKHTGIHYAEANYYQLDARINKLMKFLETSDENDVLKAIQGGAVKDQRVHQMIVDLA — lower, -1.7
- HMNEMEFAQRLRQFRKAKNLTQQELADRLGVSNKSVSRWESGSYPDVGTLVALARALGVTVDELLDPKA — within 0.2 log units, 0.0532
- HMNGTEAIRRYIDQFASKHATTPRMLKLNERKQLIQELKNNGLLEIKKAVETVAQHLGISRASAYLYVKE — lower, -0.303
- HMSKTQYTFREVGSQFELHAPSTNHKIMVDANHPKYGWLSSQEAGRVINVYESGKMTSSQDYYGLYKQS — within 0.2 log units, -0.0727
- HMQQPVVVQQNQTVRVVTGGPGFQVANEGRALNNGLAGQVVQVRLGNGQIISGIARAGGIVEIL — within 0.2 log units, 0.0705
- HMTTKYVAVHESKDGYWTIASKPSSKEDAEAMLGGTPKNEVGKVVTLEEAKAHKKTLGEEYLYE — higher, 0.272
- HMEYRVRDKMTDILELLTEHRGRIALRDAFPTGTREELLAAFLALLELTKMQTVIVYQDRLYDDIQIVMK — lower, -0.204
- HMGASYSQFLDQVDSGNVQKVAFGGDMRGGTSQLTYTTRGGQSSTITAPFDRDLINVLRTKNVEIVQEEP — within 0.2 log units, 0.139
- HMEEIALTDILNRFLSSLSLEQRKIFMRRYWYLSPIKEIATEYGMSESKIKMSLFRSRNELKKLLEKEGI — lower, -0.396
- HMTTAGTAIVQTGNSGKLNLREQAYANAGILGRYSNGTAVTVLQKGAAWSYVEVKGQKGYMMSKFLKFTS — within 0.2 log units, -0.0681
- HMEVENAQLLARLTPQEHRVFERVVAGLSNREIGSEMDISIKTVEVHRARVMRKLEANSVAELVRFHIHN — lower, -2.25
- HMNTTTTKVVSVSSLNMRSGPSTSYNIIEVLTKDTQVEVISVEDGWAKIKYNSKTGYVSNQYLSDKK — within 0.2 log units, 0.0146
- HMAPNVEENSKLIGEIGMTLTPLRPSGIATINNRRVDVVSNGDFIDQDERVMVKRVQGARVVVIPV — within 0.2 log units, 0.109
- HMRRQRNPEIFDQLVNKFHFTFTQTQQLKQLIKRWHMLFPGKSLKSAIQGYKSAKEILTYINDSLDVVE — within 0.2 log units, 0.124
- HMTRQPSAKEHAVLTAVKEGLRRDGRAPTVRALADMTGAASTSTVQRRISALIDLGLLRRTDGTLEVVE — within 0.2 log units, -0.000402
- HMNSKKRQAILESLRSVTDHPTAEMIYNRLKPEYPDLSLGTVYRNLAMFLEEGQVISVGTVDGQERYDAR — lower, -0.306
- HMTDLDVAVTMTVALEEAVNGATRRVRLPNGKELNVKIPAGVAAGQQIRLKGQGETAPGHRPGDVLITVNI — lower, -0.262
- HMTRNEFMTALRKRLSHLPAEEQDAALKYYEEYFDEAESEEEAARQLGSPDAIADRILADYGAG — within 0.2 log units, 0.0132
- HMAKRKYKSFKDVAEFAQKLGIKSSTEWWAYVRGHEIPSDIPKDPSTYYKKEWTTWGDFLGTGYVSSA — within 0.2 log units, 0.154
- HMGGKTAVVTGSLVNVRKGPGTGNALVGQVARGDELPVLGQDGDWYQIKLANGSNGWVAGWLVSLKDAVP — higher, 0.432
- HMKETLSDTVSRKLEDMITTQMKAGNRLPTEMVLAEMYSVGRSTIRESLKALSSKGLIVRKKDGTFVSDRV — within 0.2 log units, -0.109
- HMEAEMLYQVKVKITNLVIRSGAGAIYPIVKRYASGVLPIYEEKNGYGKIAVGQWISLSPEFVERVD — lower, -0.385
- HMNYIEWKNTFKKYLYLLPIKEEKETLAYFDEQYNKLNPKDLDNVENIFSDPIDKAAFVVAFYLEMEDEIK — lower, -0.612
- HMLPGKEIPLPEFLREAFARNEPALENFQNLAPSYRRQYILWITSAKTPETVQKRISESIGLLKENRKLGM — within 0.2 log units, 0.0472
- HMKTERTVRVQDQHLHYTLEEKPIKNVNLRIRPDGSVYVSAPFGTSRTLIDDFVASKSKQILAIQQAQSAM — within 0.2 log units, -0.0134
- HMTEKIRLTVDEAGKNQRVDKYISTLLTQFSRSSIKTWIETGNILLDNTRTKPRTLLSPGQVIDIQPRFED — lower, -0.643
- HMEQIFTELIMDGRVLGENLHRMGVDETWLLRQLRQQGYHSAREVFLAVADANKQVAVYPVS — lower, -0.308
- HMDRNIVYSDFIRSVNQGQVSEVLVQGDNIRGRYLNGKVFQTFAPKDPSLISTLRNKGVRISAEPA — within 0.2 log units, 0.113
- HMSSPDMSLLYSELDVKDSGQIVTILEQRNIPYEVRNNGSQIYIPSNNVQRIRLSLAQEGLPSG — within 0.2 log units, -0.0716
- HMKFYIHEIIGFNAVDKVAGIVGKVININEDSPQKKLVVNYNGKEVFIPLVDEIVRKIDKQKNEVLITMP — within 0.2 log units, 0.155
- HMHLRYTYIYDNENRVTSKEASKWDSTQEAWVPYFKMNVSYVNNEVELSYARWNSKSNAYDSSIKKTI — lower, -2.36
- HMQHYQFEVDEASSKKRLDVFLSENLPEISRSRLKKLIDEKRVTVNEMSRPAGYKVRVKEKIEFHIPPL — lower, -0.402
- HMGQKDYKTRLQEYFAKQGLKVNYEDTSHGPDHNKNFSTDVFLDGKIIGSGIGKSKKSSQQSAAKDALNIL — higher, 0.338
- HMKKYDIKEAQEIAEINRIPGLVTTSHGRRVYFDPKIMQYVSEEQIVKKYGQKTVKMLDQWYVSNILNK — within 0.2 log units, -0.0388
- HMENHILIIDDDLMLLKTAEEILSDQYNVSVAKSGIQALNLLNKNIIPDLILLDIDMPQMDGYETL — within 0.2 log units, -0.0279
- HMHDYYDSIDAVTHDKSYESNLVFALKLGYTETQLQKALLKLGKKAREDQILEELIRIQKSSKA — within 0.2 log units, 0.114
- HMIPNEKEAARWDALTAEHTAKLNALEGDALDKVGSHEDVSIKRAGVGDAAFREKILSRTHPDDLERALST — within 0.2 log units, 0.0829
- HMDQILIHLKEGIDVTDVQPMLKALDLNVRMFNRDKNIIVISVLNRELDAIPQTIAALRPWEELFDSA — within 0.2 log units, -0.00536
- HMAPDNDELEKAKKIVNAFIEAKAKGLGVVSLGTKMIDAPVVKRAQKIIDQTIVMGKLSLNWQDEFFN — within 0.2 log units, -0.0351
- HMRVNINVSENILDWVMKRVNPSVLSSKQGELLYAWKEGRKVPTYNQIEKMSKVTGIPLGYFFLEKPPVE — lower, -0.569
- HMYKTKVDIAYDMLMERITEGVYKPGEKLVITHISKELGISDIPVREAIRRLESEGYVKILPNQGAIVYD — lower, -0.395
- HMKVTGITDDILQRLKQQKGYLMLSDKSSPDEIYAAFGVSKKVFKQAIGTLFKQRQIIIEEQGIRLAN — lower, -0.39
- HMNVNSQQINDLEKSIQKFFDKDIKNYLNQNLSNDRMISKNEIDKIILLYYGSDKEPTLDEIKSIFN — within 0.2 log units, -0.0913
- HMPSPSTLAKVDPFLLVTNADSLLMARPDDSELRAAIITAHINLAKTNNSVDHYKEVLKIEPQNALANYN — within 0.2 log units, 0.0175
- HMHMIDDYLARIGQLIRDARQHRGWTQVQLAEALGTSQSAVNRIERGNQNISLEMIARIGEALGSEIVSLG — lower, -1.62
- HMPNQLLELVEMEIRDLLNEYEFPGDDTPIIQGSALKALEDPMGPWGDKIMDLMDAVDSYIPDPE — lower, -0.581
- HMSTPENLGGRNTAKARISWLENGVKQELESDFPAAEVVKLSSRFGGEVPELTVIRPSLEDIYLKMIG — within 0.2 log units, 0.0409
- HMKEYRKEGHLYFVTEDRNNEIYLWDFTDKPKHEFKEIITSVELQKVAKEGAMLQYKNGKYELYS — within 0.2 log units, -0.171
- HMAQLTPREREVLVLIAEGKSNKEIADQLNIGVRTIETHRERIMRRLNIHSVAGLTKYAIANGLVTL — within 0.2 log units, 0.116
